Tested on: MG-63 cells
Assay: WST-1 cell viability of MG-63 cells
Format: cell-based, human
Conditions: GDNF 50 ng/ml, 24 h
Procedure: FIG. 4. GFRα1 regulates autophagy by Src/AMPK signaling in osteosarcoma cells. (a-b) Immunoblot analysis of osteosarcoma cell lysates with antibodies specific for GFRα1, p-Src, Src, p-AMPK, AMPK, p-mTOR, mTOR, p-p70 S6Kinase, Beclin 1, HMGB1, LC3, and β-actin. (a) MG-63 and cells were treated with cisplatin (20 μM) for 24 hr. (b) Control and GFRα1-deficient MG-63 cells were treated with cisplatin (20 μM) for 24 hr. (c-e) Immunoblot analysis of osteosarcoma cell lysates with antibodies specific for GFRα1, p-Src, Src, p-AMPK, AMPK, LC3, and β-actin. (c) Control and Src-deficient MG-63 cells were treated with cisplatin (20 μM) for 24 hr. […] Cell viability was measured using the WST-1 assay. […] Cell viability was measured using the WST-1 assay. […]
FIG. 7. […] (a) Quantitative real-time PCR of GDNF mRNA expression after cisplatin treatment. […] (b-d) Cell viability was measured using the WST-1 assay. […] (f) Quantitative analysis of the number of yellow puncta and the number of RFP-LC3 puncta in the combined images of Control and GFRα1-overexpressing MG-63 cells treated with GDNF. […]
Cell viability assays. […] Cell viability was determined by measuring the absorbance after adding WST-1. The spectrophotometric absorbance of the samples was measured using an Ultra Multifunctional Microplate Reader (Tecan, Durham, N.C.) at 450 nm. […]

B1: GDNF: glial cell line-derived neurotrophic factor, the major ligand of GFRα1 (protein, UniProt P39905 78-211, looked up)
Glial cell line-derived …: SPDKQMAVLPRRERNRQAAAANPENSRGKGRRGQRGKNRGCVLTAIHLNVTDLGLGYETKEELIFRYCSGSCDAAETTYDKILKNLSRNRRLVSDKVGQACCRPIAFDDDLSFLDDNLVYHILRKHSAKRCGCI
  cell proliferation of MG-63 cells: no effect

Source: patent US20180171411A1, “GFRalpha1 AS A BIOMARKER FOR CISPLATIN-INDUCED CHEMORESISTANCE AND METASTASIS” (THE BOARD OF REGENTS OF THE UNIVERSITY OF TEXAS SYSTEM, priority 2015, published 2018)
